Data on one molecule can be found in patent publication US20090163698A1 (published 2009).

For the assay, the target named is murine αVβ3/5 integrin (murine, UniProt P43406 31-1044). Put plainly: cell-based or functional assay.
murine αVβ3/5 integrin, sequence (P43406 31-1044): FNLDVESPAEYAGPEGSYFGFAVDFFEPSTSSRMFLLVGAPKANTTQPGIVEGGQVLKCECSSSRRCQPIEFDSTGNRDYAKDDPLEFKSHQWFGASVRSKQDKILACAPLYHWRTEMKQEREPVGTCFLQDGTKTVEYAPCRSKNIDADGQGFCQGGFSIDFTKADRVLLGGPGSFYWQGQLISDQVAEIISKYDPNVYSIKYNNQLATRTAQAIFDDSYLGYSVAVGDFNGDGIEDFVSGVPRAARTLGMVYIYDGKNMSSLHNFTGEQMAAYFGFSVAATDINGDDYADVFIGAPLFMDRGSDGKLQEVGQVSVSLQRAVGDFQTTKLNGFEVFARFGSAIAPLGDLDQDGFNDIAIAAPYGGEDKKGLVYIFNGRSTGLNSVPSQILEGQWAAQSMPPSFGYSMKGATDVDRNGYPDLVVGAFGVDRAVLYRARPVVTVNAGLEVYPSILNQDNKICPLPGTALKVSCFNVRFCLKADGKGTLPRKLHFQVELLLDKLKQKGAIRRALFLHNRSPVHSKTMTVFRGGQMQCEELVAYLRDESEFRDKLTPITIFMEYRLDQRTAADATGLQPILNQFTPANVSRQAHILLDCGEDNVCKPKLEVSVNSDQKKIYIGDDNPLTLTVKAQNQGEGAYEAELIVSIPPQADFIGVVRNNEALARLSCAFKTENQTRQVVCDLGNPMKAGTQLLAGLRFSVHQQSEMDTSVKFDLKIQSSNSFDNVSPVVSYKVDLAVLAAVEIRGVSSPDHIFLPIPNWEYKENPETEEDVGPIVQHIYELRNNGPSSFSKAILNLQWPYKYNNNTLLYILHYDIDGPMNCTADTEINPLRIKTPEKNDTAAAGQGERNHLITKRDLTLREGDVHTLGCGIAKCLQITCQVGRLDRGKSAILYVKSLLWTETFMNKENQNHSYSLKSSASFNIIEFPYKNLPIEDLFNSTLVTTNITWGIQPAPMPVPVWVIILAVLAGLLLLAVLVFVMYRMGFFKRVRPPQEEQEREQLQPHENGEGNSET

B1: CNTO 95 Fab′ (anti-alpha-V Fab′ made by pepsin cleavage of the parent antibody, reduction and reoxidation), conjugated to MalPEG-DSPE on the surface of … (Fab, V domains shown)
VH: QVQLVESGGGVVQPGRSRRLSCAASGFTFSRYTMHWVRQAPGKGLEWVAVISFDGSNKYYVDSVKGRFTISRDNSENTLYLQVNILRAEDTAVYYCAREARGSYAFDIWGQGTMVTVSS
VL: EIVLTQSPATLSLSPGERATLSCRASQSVSSYLAWYQQKPGQAPRLLIYDASNRATGIPARFSGSGSGTDFTLTISSLEPEDFAVYYCQQRSNWPPFTFGPGTKVDIKR
modifications: free sulfhydryl near the C-terminus conjugated to maleimide-PEG-DSPE inserted in the liposome
As to B1, the “Increase (ratio of IC50 of liposome-entrapped doxorubicin to IC50 of 90:1 targeted liposomes), B16-F10 cells” value turned out to be 1 fold.
